{
  "source": "patent US20090117551",
  "key": {"[1]": {"tested_on": "GFP-caspase-3 recognition peptide inserted modified protein"}, "[2]": {"tested_on": "GFP-trypsin recognition peptide inserted modified protein"}},
  "data": [
    {"substance": "Caspase-3 (Medical & Biological Laboratories)", "values": [
      {"measurement": "FRET between quantum dot and GFP after protease treatment (30 C, 120 minutes)", "setting": "[1]", "result": "the disappearance of FRET was observed"},
      {"measurement": "peak wavelength of fluorescence intensity", "setting": "[1]", "result": "shifted from 510 nm (untreated with trypsin) to 506 nm (treated with trypsin)"}
    ]},
    {"substance": "Trypsin", "values": [
      {"measurement": "FRET between quantum dot and GFP after protease treatment (37 C, 120 minutes)", "setting": "[2]", "result": "the disappearance of FRET was observed"},
      {"measurement": "FRET waveform pattern, simultaneous DNase/trypsin assay (QD565 with GFP of FIG. 5A)", "setting": "[2]", "result": "it was observed that the peak around 510 nm shifted"},
      {"measurement": "peak wavelength of fluorescence intensity", "setting": "[2]", "result": "shifted from 513 nm (untreated with trypsin) to 508 nm (treated with trypsin)"}
    ]}
  ]
}
